Here are results for 3 molecules from patent US20230075753A1 (UCB, published 2023).

Positions count from the first letter of the chain named. “And” between values parts separate entries of the source, which are not always exact repeats. Equal values may be shown once.

The target of assay [1] is T1, Active human KLK5 (human, UniProt Q9Y337 67-293).
T1 construct: glycosylated; also called Hu KLK5; KLK5 analyte (prepared in house)
The assay can be described thus: SPR; LEKTI D5 Fab fusion immobilised, human KLK5 injected; reference row, same values as Table 4A. On the procedure:
(§1) Kinetic measurements for the binding of LEKTI D5 Fab fusion protein to human KLK5 were obtained using a Biacore T200 (GE Life Sciences™). To prepare the surface, CM5 chips (GE Life Sciences™) were first activated with a 5-minute injection (30 μL min⁻¹) of a mixture of EDC/NHS (GE Life Sciences™) followed by injection of 100 μg mL⁻¹ LEKTI D5 Fab fusion (UCB) in acetate buffer, pH 5.0 (GE Life Sciences™) to achieve 80 RU immobilised LEKTI D5 Fab fusion on the chip surface. Finally, an injection of 1 M Ethanolamine hydrochloride-NaOH pH 8.5 was utilised to deactivate the surface. Increasing concentrations of human KLK5 from 0.32 to 32 nM in HBS-EP buffer (GE Life Sciences™) were then injected in the single cycle kinetics mode. Values resulting from buffer only injections were subtracted from those obtained for the KLK5 injections and kinetics determined by fitting to a 1:1 binding model in BIAcore evaluation software (GE Life Sciences™)
(§2) As reference, LEKTI D5 Fab fusion protein was immobilised to the chip surface prior to monitoring the interaction with human KLK5.

The target in assay [2] is T1, Active human KLK5. As to the kind of experiment: SPR, Biacore T200; LEKTI D5 Fab fusion immobilised on CM5 chip, human KLK5 injected 0.32-32 nM, single cycle kinetics, 1:1 model. How it is done: as §1, §2
(In general: SPR reads the build-up and loss of mass on a sensor chip optically.)

Assay [3] concerns the target T1, Active human KLK5. As to the kind of experiment: SPR; antibody 10236 gL6gH12 captured on anti-human Fc and loaded with human KLK5, LEKTI D5 Fab fusion injected, 1:1 model; KLK5 in complex with 10236 gL6gH12. How it is done: (§3) The experimental conditions described in example 5 were used with the exception that an anti-human Fc chip surface was prepared, and the results are reported in Table 6.

Assay [4] deals with T1, Active human KLK5. The assay can be described thus: SPR, Biacore; rabbit antibody 10236 captured on anti-rabbit Fc and saturated with 20 nM human KLK5, LEKTI D5 Fab fusion injected 30 pM-100 nM, 1:1 model; KLK5 in complex with 10236. How it is done: 20 nM of human KLK5 was then injected until the surface reached saturation. LEKTI D5 Fab fusion protein (generated as described in example 1) was then injected at concentrations between 30 pM and 100 nM. Values from buffer only injections were first subtracted from those obtained with the analytes before fitting to a 1:1 binding kinetic model in Biacore™ evaluation software (GE Life Sciences™)

The target in assay [5] is T1, Active human KLK5. As to the kind of experiment: SPR, Biacore T200; LEKTI D5 Fab fusion immobilised on CM5 chip, human KLK5 injected 0.32-32 nM, single cycle kinetics, 1:1 model; human KLK5 alone, no antibody 10236; LEKTI D5 Fab fusion immobilised on the chip. On the procedure:
as §1, §2

Assay [6] addresses T1, Active human KLK5. As to the kind of experiment: SPR; antibody 10236 gL6gH12 captured on anti-human Fc and loaded with human KLK5, LEKTI D5 Fab fusion injected, 1:1 model; KLK5 in complex with 10236 gL6gH12; KLK5 already in complex with antibody 10236 gL6gH12. On the procedure:
as §3

In assay [7] the target is T1, Active human KLK5. The assay can be described thus: SPR, Biacore T200, 25 C; reference 10236gL6gH12. How it is done:
(§4) A goat anti-human IgG Fc specific antibody (Jackson ImmunoResearch) was immobilized on a CM5 Sensor Chip via amine coupling chemistry to a level of approximately 6000RU. Each analysis cycle consisted of capture of the anti-KLK5 IgG molecules to the anti Fc surface, injection of KLK5 analyte (prepared in house) for 300 s at 30 μl/min followed by 600 s dissociation. At the end of each cycle the surface was regenerated at a flowrate of 10 μL/min using a 60 s injection of 50 mM HCl followed by a 30 s injection of 5 mM NaOH and a final 60 s injection of 50 mM HCl. Human KLK5 was titrated from 20 nM to 0.03 nM (6×3-fold serial dilutions) in HBS-EP+ running buffer (GE Healthcare) supplemented to a final concentration of 300 mM NaCl. Buffer blank injections were included to subtract instrument noise and drift. Kinetic parameters were determined using a 1:1 binding model using Biacore T200 Evaluation software (version 3.0).

Assay [8] concerns the target T1, Active human KLK5. As to the kind of experiment: SPR, Biacore T200, 25 C; IgG captured on anti-human Fc, human KLK5 as analyte (20-0.03 nM), 1:1 model. On the procedure: The kinetics of binding of both antibodies 10236gL6gH12 and 10236gL6-N94DgH12 to human KLK5 were assessed by surface plasmon resonance (Biacore T200, GE Life Sciences™) at 25° C. to assess the impact of 100% deamidation.
as §4

Another assay deals with T2, Active cyno KLK5 (cynomolgus monkey, UniProt Q9Y337 67-293 (human entry)).
T2 chain: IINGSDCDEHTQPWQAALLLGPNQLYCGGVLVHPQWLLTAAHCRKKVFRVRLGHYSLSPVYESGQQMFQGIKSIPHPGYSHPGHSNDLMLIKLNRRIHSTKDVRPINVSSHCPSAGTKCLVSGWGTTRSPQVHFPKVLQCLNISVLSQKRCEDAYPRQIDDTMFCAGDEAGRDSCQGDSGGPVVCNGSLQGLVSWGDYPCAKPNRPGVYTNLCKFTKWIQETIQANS
The assay can be described thus: cell-based or functional assay.

In assay [9] the target is T1, Active human KLK5. As to the kind of experiment: SPR; average of the 2 runs of Table 15.
Assay [10] concerns the target T1, Active human KLK5. The assay can be described thus: SPR, Biacore T200, 25 C; IgG from supernatant captured on anti-human Fc, human KLK5 as analyte (20-0.08 nM), 1:1 model. How it is done: A goat anti-human IgG Fc specific antibody (Jackson ImmunoResearch) was immobilized on a CM5 Sensor Chip via amine coupling chemistry to a level of approximately 6000RU. Each analysis cycle consisted of capture of the anti-KLK5 IgG from supernatants to the anti Fc surface, injection of KLK5 analyte (prepared in house) for 180 s at 30 μl/min followed by 600 s dissociation. At the end of each cycle the surface was regenerated at a flowrate of 10 μL/min using a 60 s injection of 50 mM HCl followed by a 30 s injection of 5 mM NaOH and a final 60 s injection of 50 mM HCl. Human KLK5 was titrated from 20 nM to 0.08 nM (5×3-fold serial dilutions) for the supernatant in HBS-EP+ running buffer (GE Healthcare®) supplemented to a final concentration of 300 mM NaCl. Buffer blank injections were included to subtract instrument noise and drift. Kinetic parameters were determined using a 1:1 binding model using Biacore T200 Evaluation software (version 3.0). Experiments were carried out at 25° C.

B1: LEKTI D5 Fab fusion protein (other)
heavy: EVQLLESGGGLVQPGGSLRLSCAVSGIDLSNYAINWVRQAPGKGLEWIGIIWASGTTFYATWAKGRFTISRDNSGGGGSGGGGSREIVKLCSQYQNQAKNGILFCTRENDPIRGPDGKMHGNLCSMCQAYFQAENEEKKKAEARARSGGGGGGGGSKNTVYLQMNSLRAEDTAVYYCARTVPGYSTAPYFDLWGQGTLVTVSSASTKGPSVFPLAPSSKSTSGGTAALGCLVKDYFPEPVTVSWNSGALTSGVHTFPAVLQSSGLYSLSSVVTVPSSSLGTQTYICNVNHKPSNTKVDKKVEPKSCHHHHHHHHHH
light: DIQMTQSPSSVSASVGDRVTITCQSSPSVWSNFLSWYQQKPGKAPKLLIYEASKLTSGVPSRFSGSGSGTDFTLTISSLQPEDFATYYCGGGYSSISDTTFGGGTKVEIKRTVAAPSVFIFPPSDEQLKSGTASVVCLLNNFYPREAKVQWKVDNALQSGNSQESVTEQDSKDSTYSLSSTLTLSKADYEKHKVYACEVTHQGLSSPVTKSFNRGEC
notes: the Fab itself is specific for albumin; also called Human LEKTI D5 Fab fusion protein
By koff is commonly meant the rate constant with which the complex falls apart. A lower koff goes with a long-lived complex. What is called kon is the second-order rate constant of association. Lower therefore signals slow association. What is called Kd is the equilibrium constant for the complex coming apart. Read a low Kd as a tighter complex. As to B1, the koff with Active human KLK5 [1] is 2.3e-05 s⁻¹; in the assay with Active human KLK5 [2] it was 2.3e-05 s⁻¹; in the assay with Active human KLK5 [3], 0.0016 s⁻¹; in the assay with Active human KLK5 [4], 0.0073 s⁻¹. The kon with Active human KLK5 [1] worked out at 570000 M⁻¹ s⁻¹; in the assay with Active human KLK5 [2] it was 570000 M⁻¹ s⁻¹; with Active human KLK5 [4] it was 59000 M⁻¹ s⁻¹. In addition, the Kd came to 120 nM with Active human KLK5 [4], 0.04 nM in the assay with Active human KLK5 [5] and 540 nM with Active human KLK5 [6].

B2: Antibody 10236 gL6-N94DgH12 (IgG4P) (antibody, V domains shown)
VH: EVQLQESGPGLVKPSGTLSLTCAVSGFPLSNYAMSWVRQPPGKGLEWIGDIYPSDIIDYASWAKGRVTISQDSSKNQVSLKLSSVTAADTAVYYCARDNNDYGLDIWGQGTLVTVSS
VL: AYDMTQSPSSLSASVGDRVTITCQASQSISSWLAWYQQKPGKAPKLLIYLASTLASGVPSRFSGSGSGTDFTLTISSLQPEDFATYYCQQGYTDSNIINTFGGGTKVEIKR
notes: surrogate for the fully deamidated product of 10236gL6gH12
Consider B2, for which, in the assay with Active human KLK5 [7], the “fold decrease of affinity against 10236gL6gH12” value amounted to 4.5 fold. In the assay with Active human KLK5 [8], binding was characterised by a dissociation constant (Kd) of 1.25 nM, the off-rate (koff) was found to be 0.00486 s⁻¹ and the kon is 3.89e+06 M⁻¹ s⁻¹.

B3: Humanized antibody 10236 gL6gH12 (antibody, V domains shown)
VH: B2 VH
VL: B2 VL with D94N
notes: also called Ab10236gL6gH12
Turning to B3, the “IC50 (read off the curve)” value with Active cyno KLK5 is around 0.1 nM. For the same molecule, the Kd is 0.299 nM with Active human KLK5 [9]; 0.314 nM and 0.283 nM with Active human KLK5 [8]; 0.324 nM in the assay with Active human KLK5 [10]. Further, the off-rate (koff) is 0.000711 s⁻¹ and 0.000658 s⁻¹ with Active human KLK5 [8]; 0.00066 s⁻¹ with Active human KLK5 [10]. Besides, the on-rate constant (kon) is 2.26e+06 M⁻¹ s⁻¹ and 2.33e+06 M⁻¹ s⁻¹ with Active human KLK5 [8]; 2.04e+06 M⁻¹ s⁻¹ with Active human KLK5 [10].
